# According to patent US20120009171A1 (SHIRE HUMAN GENETIC THERAPIES, published 2012):
# Molecular target: the molecule itself
# Test: SEC-HPLC, mobile phase 100 mM sodium citrate pH 5.5 (self-association)
# Method: Waters HPLC systems were used for size exclusion and reversed phase HPLC analyses. For initial SEC-HPLC analysis, 50 μg of rhASA was injected on to an Agilent Zorbax GF-250 column (4.6 mm×250 mm) and run isocratically at 0.24 mL/min using a mobile phase of 100 mM sodium citrate pH 5.5 (octomer detection) with a detection wavelength of 280 nm. The analyses were repeated using mobile phase conditions of 100 mM sodium citrate, pH 7.0 (dimer detection).
# Analysis by size exclusion HPLC detected some degradation for the 2 week thermal stressed sample formulated in 5 mM sodium phosphate with 154 mM NaCl at pH 7.0. The degradation was more evident by SEC-HPLC using a pH 5.5 mobile phase condition which induces association of rhASA to an octamer.
protein,measurement,value
"recombinant human arylsulfatase A (rhASA) (enzyme, By SEC-HPLC it associates to an octamer at pH 5.5 and is seen as a dimer at pH 7.0; also called recombinantly-prepared human arylsulfatase A; human ASA) RPPNIVLIFADDLGYGDLGCYGHPSSTTPNLDQLAAGGLRFTDFYVPVSLCTPSRAALLTGRLPVRMGMYPGVLVPSSRGGLPLEEVTVAEVLAARGYLTGMAGKWHLGVGPEGAFLPPHQGFHRFLGIPYSHDQGPCQNLTCFPPATPCDGGCDQGLVPIPLLANLSVEAQPPWLPGLEARYMAFAHDLMADAQRQDRPFFLYYASHHTHYPQFSGQSFAERSGRGPFGDSLMELDAAVGTLMTAIGDLGLLEETLVIFTADNGPETMRMSRGGCSGLLRCGKGTTYEGGVREPALAFWPGHIAPGVTHELASSLDLLPTLAALAGAPLPNVTLDGFDLSPLLLGTGKSPRQSLFFYPSYPDEVRGVFAVRTGKYKAHFFTQGSAHSDTTADPACHASSSLTAHEPPLLYDLSKDPGENYNLLGGVAGATPEVLQALKQLQLLKAQLDAAVTFGPSQVARGEDPALQICCHPGCTPRPACCHCPDPHA",binding result,binds
